“Also recorded” adds a separate entry of the source.
T1: NPC1 (Homo sapiens, UniProt O15118)
T1 construct: endogenous in cells; host or cells: DLD-1 (mutant KRas colorectal cancer cells)
T1 sequence (O15118 23-1278): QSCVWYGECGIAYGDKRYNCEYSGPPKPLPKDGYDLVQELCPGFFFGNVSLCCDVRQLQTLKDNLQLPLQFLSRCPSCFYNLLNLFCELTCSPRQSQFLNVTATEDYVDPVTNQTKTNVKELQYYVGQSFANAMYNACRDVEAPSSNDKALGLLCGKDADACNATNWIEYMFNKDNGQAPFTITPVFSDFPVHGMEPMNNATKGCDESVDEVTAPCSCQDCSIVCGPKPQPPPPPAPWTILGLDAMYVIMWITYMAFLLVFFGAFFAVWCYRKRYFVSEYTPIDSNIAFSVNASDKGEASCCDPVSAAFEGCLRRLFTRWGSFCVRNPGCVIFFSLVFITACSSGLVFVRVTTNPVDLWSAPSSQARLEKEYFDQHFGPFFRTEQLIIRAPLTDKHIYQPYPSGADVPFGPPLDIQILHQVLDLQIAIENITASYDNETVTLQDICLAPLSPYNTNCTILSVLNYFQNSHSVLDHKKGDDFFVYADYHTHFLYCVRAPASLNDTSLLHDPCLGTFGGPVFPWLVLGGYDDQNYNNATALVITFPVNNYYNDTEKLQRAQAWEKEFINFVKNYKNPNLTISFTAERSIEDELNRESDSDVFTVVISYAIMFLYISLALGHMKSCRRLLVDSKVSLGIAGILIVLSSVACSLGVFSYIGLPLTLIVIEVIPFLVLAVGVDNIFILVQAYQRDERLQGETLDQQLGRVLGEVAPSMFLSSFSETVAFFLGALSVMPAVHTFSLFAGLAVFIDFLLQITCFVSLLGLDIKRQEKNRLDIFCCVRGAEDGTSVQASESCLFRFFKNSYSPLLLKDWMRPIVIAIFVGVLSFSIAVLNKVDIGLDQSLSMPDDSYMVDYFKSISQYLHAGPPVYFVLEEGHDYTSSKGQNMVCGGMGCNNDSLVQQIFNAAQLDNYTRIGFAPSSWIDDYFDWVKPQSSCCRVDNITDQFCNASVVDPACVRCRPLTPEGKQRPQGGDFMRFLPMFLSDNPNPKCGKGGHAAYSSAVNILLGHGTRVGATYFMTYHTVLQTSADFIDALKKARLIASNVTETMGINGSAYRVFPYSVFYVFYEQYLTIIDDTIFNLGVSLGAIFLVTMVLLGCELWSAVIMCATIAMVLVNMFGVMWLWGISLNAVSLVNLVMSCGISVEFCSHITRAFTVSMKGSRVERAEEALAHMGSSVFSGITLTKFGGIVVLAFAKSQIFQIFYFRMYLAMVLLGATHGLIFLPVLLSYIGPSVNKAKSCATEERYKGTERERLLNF

B1: N34: NPC1-targeting monobody clone N34 (SEQ ID NO: 40) (protein)
chain: VSSVPTKLEVVAATPTSLLISWDAPAVTVSYYVITYGETGGHYWHWQTFKVPGSKSTATISGLKPGVDYTITVYAYYGQMRYYSPISINYRT
B2: N23: NPC1-targeting monobody clone N23 (SEQ ID NO: 36) (protein)
chain: VSSVPTKLEVVAATPTSLLISWDASSSSVSYYRITYGETGGPFWHYQTFTVPGSKSTATISGLKPGVDYTITVYTYSSSMHFSSSPISINYRT

Assays:
[1] = system: ERK; assay: ERK hyperactivation in NPC1 knockdown cells, EGFR inhibition; format: cell-based; conditions: short-term EGFR inhibition
[2] = system: HCT-116 cell; assay: HCT-116 cell proliferation, Syto60 assay; format: cell-based; conditions: Syto60 assay after 3 days of treatment, n=3
Description: Proliferation was analyzed by Syto60 assay after 3 days of treatment. n=3

[3] = system: HeLa cells; assay: LC3B accumulation in macropinocytosis negative wild-type KRas HeLa cells; format: cell-based
Description: (§1) FIGS. 8A-8B show mutant KRas-dependent effects of NPC1-targeting monobodies. N23 and N34 clones were analyzed for effect on macropinocytosis negative wild-type KRas HeLa cells (FIG. 8A) versus macropinocytosis-positive mutant KRas […] cells (FIG. 8B). FN is a non-targeting monobody control. Arrows indicate LC3B accumulation.

[4] = system: HCT-116; assay: LC3B accumulation in HCT-116 cells; format: cell-based
Description: (§2) FIGS. 10A-10B show monobody selectivity in colorectal DLD-1 and HCT-116 cancer cells (CRC).
(§3) Confirmation that uptake is dependent on macropinocytosis was confirmed in CRC cell lines. […] It was also observed that upon NPC1 knockdown in vitro, there is ERK hyperactivation (FIG. 13A). This observation was confirmed using the N34 monobody in vivo (FIG. 13B).

[5] = system: HeLa KRasV12 cells; assay: LC3B accumulation in macropinocytosis-positive mutant KRas HeLa cells; format: cell-based
Description: as §1

[6] = system: xenografts; assay: Intratumor injection of monobody into xenografts; format: in vivo
Description: FIG. 11 show the in vivo cholesterol alterations with NPC1-targeting monobody (N34) versus non-targeting control (FN).
Monobody (1 uM; 50ul volume) was intratumorally injected two hours prior to tumor extraction.
Monobody (1 uM; 50ul volume) was intratumorally injected two hours prior to tumor extraction. Images were taken of serial sections from FIG. 13B.
as §3

[7] = system: Mutant Ras PDAC MIA PaCa-2 cells; assay: Split GFP assay for endosomal escape of GFP11; format: cell-based; conditions: MIA PaCa-2 cells expressing GFP1-10; 600 mM GFP11 with 1 mM monobody for 24 hrs
Description: Mutant Ras PDAC MIA PaCa-2 cells stably expressing cytoplasmic GFP1-10 were treated with 600 mM GFP11 with or without 1 mM of the N23 or N34 NCP1 monobody for 24 hrs.
A split GFP assay was developed to measure endosomal escape of proteins. Mutant Ras PDAC MIA PaCa-2 cells were stably expressed with GFP1-10, which is missing the 11β domain needed for fluorescence, making endosomal escape of GFP110 necessary for a positive signal. NPC1 targeting and control monobodies were co-delivered with the free GFP110 domain.

[8] = system: HCT-116; assay: Monobody uptake in mutant KRas CRC cells HCT-116; format: cell-based; conditions: mutant KRas CRC cells HCT-116, macropinocytosis positive
Description: as §2, §3

[9] = system: HCA7; assay: Monobody uptake in wild-type KRas CRC cells; format: cell-based; conditions: macropinocytosis negative
Description: as §2, §3

[10] = system: PDAC MIA PaCa3 cells; assay: Calcein endosomal release assay, with or without nanoparticle delivery vehicle; format: cell-based; conditions: for endosomal release of calcein: calcein alone (PBS) or packaged in pegylated nanoparticle delivery vehicles (90 nm Nano), both conditions; for calcein fluorescence (endosomal release of calcein): co-delivery with calcein (FIG. 17)
Description: Calcein is a membrane impermeable, fluid phase uptake marker that is semi-quenched when in close proximity with other calcein molecules in vesicular compartments, but with intracellular release and molecule diffusion, dequenching causes an increase in cellular fluorescence.
FIGS. 18A-18B show an NCP1 monobody mediated increase in endosomal calcein release that was further improved in the presence of a nanoparticle delivery vehicle. FIG. 18A is a panel of immunocytochemical images of PDAC MIA PaCa3 cells treated with calcein alone (PBS) or packaged in a pegylated nanoparticle delivery vehicles (90 nm Nano) (images of top row). […] FIG. 18B is a graph quantifying calcein fluorescence in each of the tested conditions.
Endosome escape was again observed in a small molecule assay (FIG. 17). Calcein is a membrane impermeable, fluid phase uptake marker that is semi-quenched when in close proximity with other calcein molecules in vesicular compartments, but with intracellular release and molecule diffusion, dequenching causes an increase in cellular fluorescence. […] The NPC1 targeting monobodies have been established to induce small molecule, biologic, and nanoparticle escape.

[11] = target: T1, NPC1; assay: Screen for NPC1-inhibitory monobodies: intracellular cholesterol trafficking, filipin; format: cell-based; conditions: for inhibition of NPC1 by endosomal accumulation of cholesterol: DLD1 cells (Ras mutation, colon), cholesterol measured by filipin; for cholesterol entrapment / vesicle disruption: DLD1 cells, preliminary data; for cholesterol entrapment: filipin
Description: FIG. 7A is a graph showing the effect of monobody clones on intracellular cholesterol trafficking. FIG. 7B are representative cell images from FIG. 7A. FIG. 7C is a heat map representation of cholesterol localization from FIG. 7B.
A major benefit of monobodies over antibodies is the lower cost in manufacturing. However, if monobodies need to be re-folded or aggregate during production, the cost of manufacturing can exceed that of antibodies. […] Utilizing both the imaging-based and biochemical approaches, it was confirmed that the monobodies described herein inhibit NPC1 in cell culture. […] FIG. 7B DLD1 cells (Ras mutation, colon) were treated with the top monobody hits and cholesterol was measured by filipin.

[12] = system: DLD-1; assay: Monobody uptake in mutant KRas CRC cells DLD-1; format: cell-based; conditions: mutant KRas CRC cells DLD-1, macropinocytosis positive
Description: as §2, §3

[13] = N34-positive vs N34-negative areas, 1 uM, 50ul intratumorally, 2 hours post-injection
[14] = N34-positive vs N34-negative tumor, 1 uM, 50ul intratumorally two hours prior to tumor extraction

| Molecule | ERK hyper-activation [1] | CRC cell proliferation [2] | LC3B accumulation [3] | accumulation of LC3B [4] | LC3B accumulation [5] | LC3B accumulation in xenograft [6, 13] | cholesterol accumulation in xenograft [6, 13] | EGFR phosphorylation (activation) in tumor [6, 14] | ERK phosphorylation (hyperactivation) in tumor [6, 14] | cholesterol accumulation in tumor cells ([6]; N34 positive tumor cells compared to non-targeting control monobody (FN)) | uptake in CK8-positive tumor cells ([6]; intratumor injection into xenografts) | fluorescence (endosomal escape of GFP11) [7] | uptake of monobody [8] | uptake of monobody [9] | endosomal release of calcein [10] | calcein fluorescence (endosomal release of calcein) [10] | inhibition of NPC1 by endosomal accumulation of cholesterol [11] | cholesterol entrapment [11] | vesicle disruption [11] | uptake of monobody [12] |
| --- | --- | --- | --- | --- | --- | --- | --- | --- | --- | --- | --- | --- | --- | --- | --- | --- | --- | --- | --- | --- |
| COc1cc2ncnc(Nc3ccc(F)c(Cl)c3)c2cc1NC(=O)/C=C/CN1CCCCC1 [dacomitinib] | blocked ERK hyper-activation | – | – | – | – | – | – | – | – | – | – | – | – | – | – | – | – | – | – | – |
| B1 | – | growth inhibitory effect | did not induce LC3B accumulation | dose-dependent accumulation of LC3B | did show an effect | robust cholesterol and LC3B accumulation; also recorded: induces cholesterol and LC3B accumulation | robust cholesterol and LC3B accumulation; also recorded: induces cholesterol and LC3B accumulation | EGFR activation was seen; also recorded: induces EGFR phosphorylation | confirmed; also recorded: induces ERK phosphorylation | displayed cholesterol accumulation | showed uptake | observed | efficiently internalize | fail to uptake | enhanced endosomal release of calcein | increasing calcein fluorescence | greatest inhibition of NPC1 | improved cholesterol entrapment | induce vesicle disruption | efficiently internalize |
| B2 | – | no significant inhibition | did not induce LC3B accumulation | – | did show an effect | – | – | – | – | – | – | observed | – | – | enhanced endosomal release of calcein | increasing calcein fluorescence | greatest inhibition of NPC1 | improved cholesterol entrapment | induce vesicle disruption | – |

Source: patent US20240025969A1, “NPC1 MONOBODIES AND MONOBODY CONJUGATES THEREOF” (NEW YORK UNIVERSITY, priority 2020, published 2024)
